From patent US10570379B2, “Polypeptides for carbon-carbon bond formation and uses thereof” (INVISTA North America S.à.r.l., priority 2015, dated 2020)
Positions count from the first letter of the chain named. Names may count otherwise.

B1: Bdigene 273: Acetate CoA-transferase YdiF from Firmicutes bacterium CAG, Uniprot R5ADR5, SEQ ID NO: 6 (protein)
chain: MARQVKVITAAEAAALIKNGDTVTTSGFVASAIPEALDRAVEERFLATGEPRDITYVYCGSQGNKDGRGAEHFAHEGLLKRYIAGHWATVPALQKMALENKMEAYNVSQGALCHLFRDIAAHRPGCFTKVGLGTFIDPRNGGGKVNDVTKEDIIELVNIKGQDYLFYPAFPINVALIRGTYADESGNISFEKEVSPLEGTSVCQAVKNSGGIVVVQVEKLVKAGTLDPRLVKVPGIYVDYVVVADPKDHQQTLDCDYDPALSGEMRNPDVAPEPLPLSAKKIIGRRGAVELEKDVAVNLGVGAPEYVASVANEEGIGDFMTLTVEGGAVGGVPAGGIRFGSAYNADALLDQGYQFDFYDGGGLDLCYLGLAECDPHGSINVSRFGPRIAGCGGFINITQCTPKVFFCGTFTAGGLKVKVEDGKVVIAQEGKNKKFVKSVEQVTFNGDIANKNGQHVMYITERCVFVLKEDGLHLTEIAPGIDLQTQILDQMEFEPIIDRNADGSITLMDAKLFADGLMGLKEMKEGK
B2: Bdigene 0343: E-cinnamoyl-CoA: R-phenyilactate CoA transferase from Clostridium sporogenes, Uniprot Q93AM1 (protein, UniProt Q93AM1 1-412, looked up)
Cinnamoyl-CoA:phenyllactate …: MENNTNMFSGVKVIELANFIAAPAAGRFFADGGAEVIKIESPAGDPLRYTAPSEGRPLSQEENTTYDLENANKKAIVLNLKSEKGKKILHEMLAEADILLTNWRTKALVKQGLDYETLKEKYPKLVFAQITGYGEKGPDKDLPGFDYTAFFARGGVSGTLYEKGTVPPNVVPGLGDHQAGMFLAAGMAGALYKAKTTGQGDKVTVSLMHSAMYGLGIMIQAAQYKDHGLVYPINRNETPNPFIVSYKSKDDYFVQVCMPPYDVFYDRFMTALGREDLVGDERYNKIENLKDGRAKEVYSIIEQQMVTKTKDEWDNIFRDADIPFAIAQTWEDLLEDEQAWANDYLYKMKYPTGNERALVRLPVFFKEAGLPEYNQSPQIAENTVEVLKEMGYTEQEIEELEKDKDIMVRKEK
B3: Bdigene 275: Acetyl-CoA acetyltransferase from Dyadobacter fermentans, Uniprot C6VTZ3, SEQ ID NO: 8 (protein)
chain: MNAYIVAGYRTAVGKAPRGGFRFTRPDDLGAAVIKHLLEKTPQLDPTRVDDVIVGNAVPEAEQGMQMGRYVALLSLPKNVSGITINRYCGSGVEAIAMASAKIHAGMAECIIAGGTESMSLVPTMGWKTALNYEIAHTNPDYYLSMGLTAEQVAQDFKISREAQDNFSFQSHQKALRAQKEGWFAEGIVPVTVKETYFDQASGKKKTKETVISQDEGPRADTTLEALNKLKPVFAAGGSVTAGNSSQTSDGAAFVLVMSERLVNELGLKPIARMMSYATAGVDPRVMGIGPVAAVPLALKQAGLQLKDIQQVELNEAFAAQSLAVIQELGIDPEIVNPNGGAIALGHALGSTGARLSVQLFNEMKRRDQKYGMVTACVGGGQGVAGIYERLN
modifications: Dyadobacter fermentans
B4: Bdigene 274: Acetate CoA-transferase YdiF from Megasphaera elsdenii DSM 20460, Uniprot G0VND6, SEQ ID NO: 7 (protein, listed as Megasphaera elsdenii)
chain: MRKVEIITAEQAAQLVKDNDTITSIGFVSSAHPEALTKALEKRFLDTNTPQNLTYIYAGSQGKRDGRAAEHLAHTGLLKRAIIGHWQTVPAIGKLAVENKIEAYNFSQGTLVHWFRALAGHKLGVFTDIGLETFLDPRQLGGKLNDVTKEDLVKLIEVDGHEQLFYPTFPVNVAFLRGTYADESGNITMDEEIGPFESTSVAQAVHNCGGKVVVQVKDVVAHGSLDPRMVKIPGIYVDYVVVAAPEDHQQTYDCEYDPSLSGEHRAPEGATDAALPMSAKKIIGRRGALELTENAVVNLGVGAPEYVASVAGEEGIADTITLTVEGGAIGGVPQGGARFGSSRNADAIIDHTYQFDFYDGGGLDIAYLGLAQCDGSGNINVSKFGTNVAGCGGFPNISQQTPNVYFCGTFTAGGLKIAVEDGKVKILQEGKAKKFIKAVDQITFNGSYAARNGKHVLYITERCVFELTKEGLKLIEVAPGIDIEKDILAHMDFKPIIDNPKLMDARLFQDGPMGLKK
B5: S60A: YdiF (SEQ ID NO: 1) mutant, alanine for serine at position 60, N-terminal His-tag (protein, listed as Clostridium propionicum)
chain: MRKVPIITADEAAKLIKDGDTVTTSGFVGNAIPEALDRAVEKRFLETGEPKNITYVYCGAQGNRDGRGAEHFAHEGLLKRYIAGHWATVPALGKMAMENKMEAYNVSQGALCHLFRDIASHKPGVFTKVGIGTFIDPRNGGGKVNDITKEDIVELVEIKGQEYLFYPAFPIHVALIRGTYADESGNITFEKEVAPLEGTSVCQAVKNSGGIVVVQVERVVKAGTLDPRHVKVPGIYVDYVVVADPEDHQQSLDCEYDPALSGEHRRPEVVGEPLPLSAKKVIGRRGAIELEKDVAVNLGVGAPEYVASVADEEGIVDFMTLTAESGAIGGVPAGGVRFGASYNADALIDQGYQFDYYDGGGLDLCYLGLAECDEKGNINVSRFGPRIAGCGGFINITQNTPKVFFCGTFTAGGLKVKIEDGKVIIVQEGKQKKFLKAVEQITFNGDVALANKQQVTYITERCVFLLKEDGLHLSEIAPGIDLQTQILDVMDFAPIIDRDANGQIKLMDAALFAEGLMGLKEMKS
modifications: N-terminal His-tag
B6: C390A: YdiF (SEQ ID NO: 1) mutant, alanine for cysteine at position 390, N-terminal His-tag (protein, listed as Clostridium propionicum)
chain: B5 chain with A60S, C390A
modifications: N-terminal His-tag
B7: C112A: YdiF (SEQ ID NO: 1) mutant, alanine for cysteine at position 112, N-terminal His-tag (protein, listed as Clostridium propionicum)
chain: B5 chain with A60S, C112A
modifications: N-terminal His-tag
B8: E324L: YdiF mutant, leucine for the glutamate in position 324, SEQ ID NO: 4 (protein)
chain: MGHHHHHHSSGLVPRGSMRKVPIITADEAAKLIKDGDTVTTSGFVGNAIPEALDRAVEKRFLETGEPKNITYVYCGSQGNRDGRGAEHFAHEGLLKRYIAGHWATVPALGKMAMENKMEAYNVSQGALCHLFRDIASHKPGVFTKVGIGTFIDPRNGGGKVNDITKEDIVELVEIKGQEYLFYPAFPIHVALIRGTYADESGNITFEKEVAPLEGTSVCQAVKNSGGIVVVQVERVVKAGTLDPRHVKVPGIYVDYVVVADPEDHQQSLDCEYDPALSGEHRRPEVVGEPLPLSAKKVIGRRGAIELEKDVAVNLGVGAPEYVASVADEEGIVDFMTLTALSGAIGGVPAGGVRFGASYNADALIDQGYQFDYYDGGGLDLCYLGLAECDEKGNINVSRFGPRIAGCGGFINITQNTPKVFFCGTFTAGGLKVKIEDGKVIIVQEGKQKKFLKAVEQITFNGDVALANKQQVTYITERCVFLLKEDGLHLSEIAPGIDLQTQILDVMDFAPIIDRDANGQIKLMDAALFAEGLMGLKEMKS
B9: Bdigene 271: Acetate CoA-transferase YdiF from Salmonella enterica subsp. houtenaeserovar, Uniprot V1HBS2, SEQ ID NO: 9 (protein, listed as Salmonella enterica)
chain: MLSTKQFTAQQAVELIQDGDKVILGGFIGAVVPEAIEKAIEDKFLAEGHPCNLGLIFAAGQGDAKEKAINRLAHEGLVSSAIGGHWGLIPGLQRLASEGKITGYNLPQGVICHLLRDSAAGKAGTLTHVGLGTFVDPRIEGGKINAKTTEDIVTYININDVENLLYKKLDANIAILRGTTADTHGNITMEDECLILENLAAAQLVHNQGGKVIVQVKRIVPKGSLDPLQVKIPGIFVDALVVADGEAHMQTFAEAMNENYVGRGEKGIRERKIRPLDVKKVIARRAAMELKKNAIVNYGIGIPEIIAQVADEENVTQELIATVEPGAIGGSPAGGLSFGASAFPEAIITQDQMFDFYDGGGLDQAFLGLAETDAKGDLNVSKFGVKIAGCGGFINITQNAKHVFFCGSFTAGDSDIIVEEGKLIIRRDGQIKKFIKHVQQITFSSDTARKNHKPVLYITERAVFRLAAETIELIEIAPGIDLQHDILDKMEFRPTISPALKEMDKRIFSEALMSLSLK

Test: Solubility of the expressed protein (Table 3)
Conditions: protein expressed in E. coli
Method: From a fresh LB plate containing the desired clone transformant, one colony (or small scratch) was picked to inoculate 25 mL of LB supplemented with the relevant antibiotic and the pre-culture was incubated overnight at 37° C., 230 rpm. The following morning, the TB auto-induced medium (Merck/Code product: 71491-5) was prepared by mixing 60 g TB/L supplemented with 10 mL Glycerol/L of TB and microwaved during 3+2 minutes at full power. The TB was cooled down before use and splitting it in sterile flasks. Then, the pre-culture incubated overnight in LB was centrifuged and the supernatant discarded. The obtained pellet was resuspended with 5 mL of freshly prepared TB medium and used to inoculate 500 mL of TB dispensed in sterile flasks and supplemented with the appropriate antibiotic. The inoculated medium was incubated at 28° C. for at least 20 h, 230 rpm.
The culture was centrifuged at least at 3000 g/20 min/4° C. and the pellet used immediately or stored at −80′C.
The pellets (fresh or thawed) were resuspended in 10 to 20 mL of Buffer A (50 mM Hepes+150 mM NaCl+40 mM Imidazole+5% Glycerol−pH 7.5). The resuspended cells were then sonicated in ice for, 5 min at 37% Amplitude with 5″ ON and 15″ OFF sonication pulse. The sonicated cells were centrifuged for at least 20 min at 15500 g and 4° C. The supernatant containing the soluble fraction of proteins was recovered, filtered using 0.45 or 0.2 um filters, and used for His-trap protein purification.

Molecule | Solubility
B1 | ✓
B2 | ✓
B3 | ✓
B4 | ✓

Test: Activity of YdiF mutant enzymes (evaluation of potential active sites)
Type: biochemical
Conditions: studied as in Example 2
Method: YdiF mutants were prepared using the relevant primers to introduce the mutated bases via the Quick change lightning kit (Agilent, code product: 210518-5), and cloned into E. coli. In addition, all the proteins used in this experiment have the following extra amino acids added in the N-terminal extremity of the original protein sequence (SEQ ID NO:1): […]. Those additional amino acids correspond to: two amino acids (M and G), a 6×His-tag followed by a 3 amino acids linker (SSG), and a specific proteolytic cleavage site (thrombin site, underlined) (SEQ ID NO: 22). All the sequences were confirmed by DNA sequencing.
(§1) Acetyl-CoA was used at a final concentration of 1.5 mM and 30 mM of the substrate being studied (e.g. carboxylic acid salts, such as sodium acrylate) or 1.5 mM of propionyl-CoA in 50 mM Hepes buffer (pH 7.5). The reaction was started by addition of 0.5 mg/mL of YdiF pure protein or mutants to a final volume of 250 μL and incubated for 1 to 10 hours at 30° C.
(§2) All samples were prepared in triplicate and spun down at 15000 g for 20 min at 4° C. Detection of the thiol product (e.g. acryloyl-CoA) synthesized from CoA-transferase activity and the keto-thiol product (e.g. 3-oxopent-4-enoyl-CoA) due to putative thiolase activity of YdiF (or homologues) was carried out by Liquid Chromatography coupled to a qTof-Mass spectrometry (in positive mode), using a C18 column (Zorbax Eclipse C18, 2.1×50 mm, 1.8μ, Agilent, code product: 959757-902) and a gradient of 10 mM ammonium acetate and acetonitrile as mobile phase.
Mutations were introduced as described in Example 1 at the following positions previously found to be potentially involved in the active site of other β-ketothiolases: C258A, S60A, C112A, S38A, C390A. Activity of the mutant enzymes was studied as described in Example 2.
Mutations were introduced as described in Example 1 to replace the glutamate in position 324 of YdiF (see Selmer et al., 2002) with glycine (mutant E324G) or leucine (E324L). Activity of the mutant enzymes was studied as described in Example 2.

Molecule | thiolase activity | transferase activity
B5 | None of the mutations abolished | None of the mutations abolished
B6 | None of the mutations abolished | None of the mutations abolished
B7 | None of the mutations abolished | None of the mutations abolished
B8 |  | only partially abolished

Test: Screen for dual transferase/ketothiolase activity with acetyl-CoA and sodium acrylate, LC-MS detection
Type: biochemical
Conditions: 3-oxopent-4-enoyl-CoA via thiolase activity
Method: as §1
Two controls were made from similar mixture except that the enzymes were inactivated by heating-up at 95° C. for 20 min or they were replaced by Buffer C.
as §2
YdiF from Clostridium propionicum belongs to the enzymatic class EC2.8.3.8. Other members of this enzyme class with similar structural features to YdiF, as well as proteins with a CoA-transferase activity from close-by enzymatic classes, were screened for dual transferase/ketothiolase activity as described in Example 2. Acetyl-CoA and sodium acrylate were provided as substrates. LC-MS was used to detect the thiol-product (propenoyl-CoA) synthesized via the transferase activity and the ketothiol-product (3-oxopent-4-enoyl-CoA) synthesized via the thiolase activity, as described in Example 2.

Molecule | ketothiol-product
B1 | ✓
B9 | ✓
B4 | ✓

Same assay, conditions: propenoyl-CoA via transferase activity

Molecule | thiol-product
B1 | ✓
B9 | ✓
B4 | ✓
